This passage reports Ave. Akt Kinase Act. (% of parent peptide activity) results from patent US20050187147A1.

For the test, the target named is Human Akt kinase (Upstate #14-276) (human), P31749. Description: cell-based or functional assay.

Square brackets hold non-standard residues; d marks the D form. Primed or numbered codes have the meaning given here. * marks the point of attachment. 10Ca = carbamate linkage conjugating the peptide-PEG to paclitaxel at C10; PEG(13) = PEG13 linker; Piv = CC(C)(C)C(=O)*; PXL = paclitaxel

Chain of Human Akt kinase (Upstate #14-276) (human), P31749 (P31749 whole entry): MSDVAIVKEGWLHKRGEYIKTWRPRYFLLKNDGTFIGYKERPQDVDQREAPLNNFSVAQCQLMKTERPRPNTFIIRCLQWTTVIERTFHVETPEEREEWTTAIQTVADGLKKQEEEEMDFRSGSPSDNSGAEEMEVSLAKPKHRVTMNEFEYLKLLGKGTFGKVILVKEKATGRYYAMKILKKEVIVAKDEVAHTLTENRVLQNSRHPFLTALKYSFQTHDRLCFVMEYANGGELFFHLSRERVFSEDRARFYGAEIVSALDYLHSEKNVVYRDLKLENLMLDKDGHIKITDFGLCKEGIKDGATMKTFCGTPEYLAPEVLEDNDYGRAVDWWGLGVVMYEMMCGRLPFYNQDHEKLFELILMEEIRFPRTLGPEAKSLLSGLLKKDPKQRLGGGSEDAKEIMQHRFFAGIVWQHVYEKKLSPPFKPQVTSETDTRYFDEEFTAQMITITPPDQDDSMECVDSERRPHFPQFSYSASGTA

B1: Pv-GRPRTSsFAEG-PEG(13)-10Ca-PXL (peptide)
peptide: Piv-GRPRTS[dS]FAEG-{PEG(13)-10Ca-PXL}
Consider B1, for which the Ave. Akt Kinase Act. (% of parent peptide activity) is 0.
